To fix the notation:
T1: biotinylated human DLL3 protein expressed as a human IgG1 fusion protein (human, UniProt Q9NYJ7 27-492, limits assumed, biotinylated)
T1 sequence: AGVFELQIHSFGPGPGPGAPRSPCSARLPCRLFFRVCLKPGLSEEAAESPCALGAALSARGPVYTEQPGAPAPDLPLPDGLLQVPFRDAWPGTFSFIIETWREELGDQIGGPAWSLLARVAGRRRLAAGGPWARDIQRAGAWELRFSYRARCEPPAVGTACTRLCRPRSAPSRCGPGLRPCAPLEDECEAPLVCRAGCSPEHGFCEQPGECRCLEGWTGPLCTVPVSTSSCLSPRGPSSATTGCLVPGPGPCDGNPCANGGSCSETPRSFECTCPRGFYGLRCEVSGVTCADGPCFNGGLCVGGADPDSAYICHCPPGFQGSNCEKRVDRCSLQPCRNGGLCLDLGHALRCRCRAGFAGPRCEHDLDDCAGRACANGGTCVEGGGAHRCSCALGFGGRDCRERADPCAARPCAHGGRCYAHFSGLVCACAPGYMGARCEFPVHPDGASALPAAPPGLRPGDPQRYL

B1: 3B07 anti-DLL3 trispecific protein (other)
chain: EVQLVESGGGLVQPGGSLTLSCAASGSRVSFLSMAWYRQAPGKKRELVAGISADGSTTYIDSVKGRFTISRDNAKNSVYLQMNSLRAEDTAVYYCYAYRWTTRYTYWGQGTLVTVSS
notes: not shown: linker 1808, anti-albumin sdAb, linker 1808, anti-CD3 fragment, His6 1819
B2: 3H010 anti-DLL3 trispecific protein (other)
chain: B1 chain with R28S, T58A, Y104R
notes: as for B1
B3: 4A04 anti-DLL3 trispecific protein (other)
chain: B1 chain with D54R, T58D, T101S
notes: as for B1
B4: 3F05 anti-DLL3 trispecific protein (other)
chain: B1 chain with R28K, A53T, T58D, Y104R
notes: as for B1
B5: 3E011 anti-DLL3 trispecific protein (other)
chain: B1 chain with R28K, A53R, T58D, Y106F
notes: as for B1
B6: 4A06 anti-DLL3 trispecific protein (other)
chain: B1 chain with R28S, S30R, A53R, T58D, Y104R
notes: as for B1
B7: 4A05 anti-DLL3 trispecific protein (other)
chain: B1 chain with R28S, M34L, T58D, T101K, Y104R
notes: as for B1
B8: 4A01 anti-DLL3 trispecific protein (other)
chain: B1 chain with R28S, S30R, A53Q, T58D, T101R
notes: as for B1
B9: 3B09 anti-DLL3 trispecific protein (other)
chain: B1 chain with R28H, D54N, T58D, T105A
notes: as for B1
B10: 3H09 anti-DLL3 trispecific protein (other)
chain: B1 chain with G26K, R28S, T58D, Y104A
notes: as for B1
B11: 4A08 anti-DLL3 trispecific protein (other)
chain: B1 chain with R28S, T58N, T101R
notes: as for B1
B12: 3G011 anti-DLL3 trispecific protein (other)
chain: B1 chain with T58G, T101A
notes: as for B1
B13: 3B010 anti-DLL3 trispecific protein (other)
chain: B1 chain with R28S, A53R, T58D, T101V
notes: as for B1
B14: 3D010 anti-DLL3 trispecific protein (other)
chain: B1 chain with R28S, V29K, T58S
notes: as for B1
B15: 3H07 anti-DLL3 trispecific protein (other)
chain: B1 chain with T58S, T101R
notes: as for B1
B16: 3C09 anti-DLL3 trispecific protein (other)
chain: B1 chain with R28S, T58I, T101R
notes: as for B1
B17: 3D03 anti-DLL3 trispecific protein (other)
chain: B1 chain with R28S, S30V, T57M, T58D, T101R
notes: as for B1
B18: 3D01 anti-DLL3 trispecific protein (other)
chain: B1 chain with R28S, A53R, T58D, T101I
notes: as for B1
B19: 3D09 anti-DLL3 trispecific protein (other)
chain: B1 chain with R28S, F31R, D54N, T105R
notes: as for B1
B20: 3G09 anti-DLL3 trispecific protein (other)
chain: B1 chain with R28S, F31V, T58D, D61G, Y104T
notes: as for B1
B21: 3C01 anti-DLL3 trispecific protein (other)
chain: B1 chain with R28S, S30R, D54H, T58D, T101S
notes: as for B1
B22: 3E04 anti-DLL3 trispecific protein (other)
chain: B1 chain with R28S, S30H, A53R, T58D, T105R
notes: as for B1
B23: 3C02 anti-DLL3 trispecific protein (other)
chain: B1 chain with R28S, S30R, T58I, T101R
notes: as for B1
B24: 3F011 anti-DLL3 trispecific protein (other)
chain: B1 chain with R28S, A53T, T58D, T101R
notes: as for B1
B25: 3D011 anti-DLL3 trispecific protein (other)
chain: B1 chain with R28S, F31R, T57R, T58D, T105K
notes: as for B1
B26: 3F06 anti-DLL3 trispecific protein (other)
chain: B1 chain with T58S, T101A
notes: as for B1
B27: 3C05 anti-DLL3 trispecific protein (other)
chain: B1 chain with A23V, S27T, R28S, Y104R
notes: as for B1
B28: 3C03 anti-DLL3 trispecific protein (other)
chain: B1 chain with R28S, S30R, A53R, T58V, Y104G
notes: as for B1
B29: 3G010 anti-DLL3 trispecific protein (other)
chain: B1 chain with R28S, A53V, T58D, T101R
notes: as for B1
B30: 3E03 anti-DLL3 trispecific protein (other)
chain: B1 chain with R28S, S30R, A53G, T58D, T101M
notes: as for B1
B31: 3D05 anti-DLL3 trispecific protein (other)
chain: B1 chain with R28S, S30R, T58D, T102R
notes: as for B1
B32: 3G06 anti-DLL3 trispecific protein (other)
chain: B1 chain with R28S, S30K, T58L, Y104R
notes: as for B1
B33: 3B011 anti-DLL3 trispecific protein (other)
chain: B1 chain with R28S, T57A, T58D, T101V
notes: as for B1
B34: 3G04 anti-DLL3 trispecific protein (other)
chain: B1 chain with A23V, S27T, R28S, T58I, Y104R
notes: as for B1
B35: 3C011 anti-DLL3 trispecific protein (other)
chain: B1 chain with R28S, S30R, D54H, T58D, T101R
notes: as for B1
B36: 3E01 anti-DLL3 trispecific protein (other)
chain: B1 chain with R28S, S30K, T58M, T101H
notes: as for B1
B37: 3H03 anti-DLL3 trispecific protein (other)
chain: B1 chain with R28S, S30R, A53T, T58D, Y98L
notes: as for B1
B38: 3F08 anti-DLL3 trispecific protein (other)
chain: B1 chain with T58L, T101H
notes: as for B1
B39: 3G07 anti-DLL3 trispecific protein (other)
chain: B1 chain with R28S, A53R, T58D, T102S
notes: as for B1
B40: 3C08 anti-DLL3 trispecific protein (other)
chain: B1 chain with R28S, S30K, A53L, T58D, T102G
notes: as for B1
B41: 3D02 anti-DLL3 trispecific protein (other)
chain: B1 chain with R28S, S30R, A53R, T58D, T101I
notes: as for B1
B42: 4A07 anti-DLL3 trispecific protein (other)
chain: B1 chain with R28K, T58L, T105R
notes: as for B1
B43: 3D08 anti-DLL3 trispecific protein (other)
chain: B1 chain with R28S, S30R, D54N, T58D, T102N
notes: as for B1
B44: 3H01 anti-DLL3 trispecific protein (other)
chain: B1 chain with A23V, R28S, S30K, A53G, Y104R
notes: as for B1
B45: 3G08 anti-DLL3 trispecific protein (other)
chain: B1 chain with A53K, T58D, Y104V
notes: as for B1
B46: 4A02 anti-DLL3 trispecific protein (other)
chain: B1 chain with R28S, S30R, A53N, T58D, T101K
notes: as for B1
B47: 3C06 anti-DLL3 trispecific protein (other)
chain: B1 chain with S27T, R28S, M34I, T58D, D61A, T101R
notes: as for B1
B48: 3G01 anti-DLL3 trispecific protein (other)
chain: B1 chain with R28S, T58L, T105A
notes: as for B1
B49: 3F010 anti-DLL3 trispecific protein (other)
chain: B1 chain with G26Y, R28S, F31R, T58V, Y104N
notes: as for B1
B50: 3G02 anti-DLL3 trispecific protein (other)
chain: B1 chain with R28S, S56R, T58D, T101R
notes: as for B1
B51: 3F09 anti-DLL3 trispecific protein (other)
chain: B1 chain with R28S, S30R, A53R, T58D, T101G
notes: as for B1
B52: 3E09 anti-DLL3 trispecific protein (other)
chain: B1 chain with R28S, S30R, A53R, T58D, T101S
notes: as for B1
B53: 3E02 anti-DLL3 trispecific protein (other)
chain: B1 chain with R28G, S30R, A53P, T58D, T102R
notes: as for B1

Substitutions are numbered along the chain they refer to.

The assay concerns the target T1, biotinylated human DLL3 protein …. Briefly: Octet BLI, single 50 nM. Summed up:
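Analyte: trispecific anti-DLL3 proteins in conditioned medium, concentration known; ligand: captured DLL3 fusion; output: binding affinity.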
For the molecule B1, the dissociation constant (Kd) was 7.3 nM. This counts as single-digit nanomolar.

The molecule B2 yielded a dissociation constant Kd of 8.6 nM.

B3 came in with a Kd of 35 nM.

With B4, the dissociation constant Kd is 7.5 nM.

B5 had a Kd of 11 nM.

The molecule B6 showed a Kd of 13 nM.

Regarding B7, the Kd came to 9.4 nM.

Molecule B8 yielded an equilibrium dissociation constant (Kd) of 10 nM.

B9: binding was put at a Kd of 20 nM.

B10 returned a Kd of 14 nM.

In turn, B11 returned a dissociation constant Kd of 24 nM.

As for B12, the dissociation constant Kd came out at 17 nM.

The molecule B13 yielded a Kd of 12 nM.

B14 registered a Kd of 14 nM. This Kd and that of the molecule before are within 1.5-fold of each other.

For the molecule B15, the dissociation constant (Kd) amounted to 13 nM.

For the molecule B16, the dissociation constant (Kd) was determined as 7.8 nM.

For the molecule B17, the affinity, expressed as Kd, was 11 nM.

In the case of B18, the Kd worked out at 10 nM. This Kd and that of the molecule before are within 1.5-fold of each other.

On to B19, for which binding was put at a Kd of 32 nM.

B20 displayed a Kd of 7.3 nM. This Kd is about 4.4-fold lower than that of the molecule before.

B21 showed a dissociation constant Kd of 14 nM.

B22 yielded a Kd of 11 nM.

Molecule B23 showed a Kd of 9.1 nM.

Turning to B24, binding was put at a Kd of 7.1 nM.

In turn, B25 registered a Kd of 5.3 nM. The Kd values of the last two molecules are within 1.5-fold of each other.

B26 showed an equilibrium dissociation constant (Kd) of 9.9 nM.

As for B27, the Kd was 8.2 nM.

B28 showed an equilibrium dissociation constant (Kd) of 4.9 nM.

B29 had a Kd of 6.9 nM.

As for B30, the Kd came out at 20 nM.

Molecule B31 yielded an equilibrium dissociation constant (Kd) of 16 nM.

In turn, B32 came in with a Kd of 12 nM.

B33: binding was put at a Kd of 9 nM. This Kd and that of the molecule before are within 1.5-fold of each other.

B34 yielded a dissociation constant (Kd) of 8.8 nM.

B35: the dissociation constant Kd was found to be 14 nM. This Kd lies about 1.6-fold higher than the previous one.

Molecule B36 had an equilibrium dissociation constant (Kd) of 16 nM.

B37 displayed a Kd of 9.9 nM. This Kd lies about 1.6-fold lower than the previous one.

For B38, binding was put at a Kd of 14 nM.

Molecule B39 gave a Kd of 13 nM.

Molecule B40 gave a Kd of 5.9 nM.

B41 displayed a Kd of 12 nM.

B42 returned a Kd of 9.8 nM.

In the case of B43, the Kd was 17 nM.

Take B44: the dissociation constant Kd is 9 nM. Against the preceding molecule, the Kd is about 1.9-fold lower.

Take B45: binding was characterised by a dissociation constant (Kd) of 12 nM.

Molecule B46 had a Kd of 9 nM.

Consider B47, for which binding was characterised by a dissociation constant (Kd) of 10 nM.

In turn, B48 yielded a dissociation constant (Kd) of 8.2 nM.

B49 yielded a Kd of 4.4 nM.

Regarding B50, binding was characterised by a dissociation constant (Kd) of 20 nM.

The molecule B51 displayed a Kd of 12 nM.

With B52, binding was characterised by a dissociation constant (Kd) of 10 nM. This Kd and that of the molecule before are within 1.5-fold of each other.

B53 displayed an equilibrium dissociation constant (Kd) of 12 nM.

Source of the values: patent US20240141072A1 (published 2024).
